Results taken from IntAct's records for PubMed 25910212.

B1: EF-hand domain-containing protein 1 (Homo sapiens), Q5JVL4 (parent)
chain: MVSNPVHGLPFLPGTSFKDSTKTAFHRSQTLSYRNGYAIVRRPTVGIGGDRLQFNQLSQAELDELASKAPVLTYGQPKQAPPADFIPAHVAFDKKVLKFDAYFQEDVPMSTEEQYRIRQVNIYYYLEDDSMSVIEPVVENSGILQGKLIKRQRLAKNDRGDHYHWKDLNRGINITIYGKTFRVVDCDQFTQVFLESQGIELNPPEKMALDPYTELRKQPLRKYVTPSDFDQLKQFLTFDKQVLRFYAIWDDTDSMYGECRTYIIHYYLMDDTVEIREVHERNDGRDPFPLLMNRQRVPKVLVENAKNFPQCVLEISDQEVLEWYTAKDFIVGKSLTILGRTFFIYDCDPFTRRYYKEKFGITDLPRIDVSKREPPPVKQELPPYNGFGLVEDSAQNCFALIPKAPKKDVIKMLVNDNKVLRYLAVLESPIPEDKDRRFVFSYFLATDMISIFEPPVRNSGIIGGKYLGRTKVVKPYSTVDNPVYYGPSDFFIGAVIEVFGHRFIILDTDEYVLKYMESNAAQYSPEALASIQNHVRKREAPAPEAESKQTEKDPGVQELEALIDTIQKQLKDHSCKDNIREAFQIYDKEASGYVDRDMFFKICESLNVPVDDSLVKELIRMCSHGEGKINYYNFVRAFSN
partner: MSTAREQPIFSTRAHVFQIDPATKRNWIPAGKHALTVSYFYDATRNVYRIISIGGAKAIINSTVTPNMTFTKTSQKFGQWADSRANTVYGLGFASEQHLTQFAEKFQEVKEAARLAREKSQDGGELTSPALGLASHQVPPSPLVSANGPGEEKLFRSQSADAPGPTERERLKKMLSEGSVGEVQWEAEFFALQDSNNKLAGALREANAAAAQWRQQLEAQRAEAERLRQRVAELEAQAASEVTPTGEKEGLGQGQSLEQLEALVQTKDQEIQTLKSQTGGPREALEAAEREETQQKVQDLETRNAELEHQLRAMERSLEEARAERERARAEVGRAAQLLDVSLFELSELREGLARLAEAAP
B2: U4/U6 small nuclear ribonucleoprotein Prp31 (Homo sapiens), Q8WWY3 (parent)
chain: MSLADELLADLEEAAEEEEGGSYGEEEEEPAIEDVQEETQLDLSGDSVKTIAKLWDSKMFAEIMMKIEEYISKQAKASEVMGPVEAAPEYRVIVDANNLTVEIENELNIIHKFIRDKYSKRFPELESLVPNALDYIRTVKELGNSLDKCKNNENLQQILTNATIMVVSVTASTTQGQQLSEEELERLEEACDMALELNASKHRIYEYVESRMSFIAPNLSIIIGASTAAKIMGVAGGLTNLSKMPACNIMLLGAQRKTLSGFSSTSVLPHTGYIYHSDIVQSLPPDLRRKAARLVAAKCTLAARVDSFHESTEGKVGYELKDEIERKFDKWQEPPPVKQVKPLPAPLDGQRKKRGGRRYRKMKERLGLTEIRKQANRMSFGEIEEDAYQEDLGFSLGHLGKSGSGRVRQTQVNEATKARISKTLQRTLQKQSVVYGGKSTIRDRSSGTASSVAFTPLQGLEIVNPQAAEKKVAEANQKYFSSMAEFLKVKGEKSGLMST
partner: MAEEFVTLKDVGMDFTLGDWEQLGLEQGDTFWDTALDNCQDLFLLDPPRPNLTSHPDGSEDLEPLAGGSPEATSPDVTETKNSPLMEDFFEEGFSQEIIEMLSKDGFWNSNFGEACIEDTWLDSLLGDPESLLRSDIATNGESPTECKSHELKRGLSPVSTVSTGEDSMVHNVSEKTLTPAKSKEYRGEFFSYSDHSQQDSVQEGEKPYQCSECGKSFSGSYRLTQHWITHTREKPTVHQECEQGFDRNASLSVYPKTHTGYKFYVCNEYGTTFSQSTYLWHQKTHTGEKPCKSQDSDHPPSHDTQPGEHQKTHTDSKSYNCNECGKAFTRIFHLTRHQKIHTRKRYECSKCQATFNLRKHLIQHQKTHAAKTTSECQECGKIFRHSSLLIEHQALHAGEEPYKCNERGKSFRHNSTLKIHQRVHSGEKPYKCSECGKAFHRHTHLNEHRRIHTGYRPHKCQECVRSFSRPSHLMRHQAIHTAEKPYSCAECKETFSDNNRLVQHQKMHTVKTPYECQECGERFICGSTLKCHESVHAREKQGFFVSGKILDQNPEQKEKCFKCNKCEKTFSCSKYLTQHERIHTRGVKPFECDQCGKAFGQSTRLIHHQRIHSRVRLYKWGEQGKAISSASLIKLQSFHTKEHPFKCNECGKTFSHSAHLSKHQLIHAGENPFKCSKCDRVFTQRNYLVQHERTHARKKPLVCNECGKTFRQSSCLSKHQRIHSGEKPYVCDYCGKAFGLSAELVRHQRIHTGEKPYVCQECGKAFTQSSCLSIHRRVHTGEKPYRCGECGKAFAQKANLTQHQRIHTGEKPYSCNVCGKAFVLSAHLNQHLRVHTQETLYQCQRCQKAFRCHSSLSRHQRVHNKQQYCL
B3: U4/U6 small nuclear ribonucleoprotein Prp31 (Homo sapiens), Q8WWY3 (parent)
chain: B2 chain
partner: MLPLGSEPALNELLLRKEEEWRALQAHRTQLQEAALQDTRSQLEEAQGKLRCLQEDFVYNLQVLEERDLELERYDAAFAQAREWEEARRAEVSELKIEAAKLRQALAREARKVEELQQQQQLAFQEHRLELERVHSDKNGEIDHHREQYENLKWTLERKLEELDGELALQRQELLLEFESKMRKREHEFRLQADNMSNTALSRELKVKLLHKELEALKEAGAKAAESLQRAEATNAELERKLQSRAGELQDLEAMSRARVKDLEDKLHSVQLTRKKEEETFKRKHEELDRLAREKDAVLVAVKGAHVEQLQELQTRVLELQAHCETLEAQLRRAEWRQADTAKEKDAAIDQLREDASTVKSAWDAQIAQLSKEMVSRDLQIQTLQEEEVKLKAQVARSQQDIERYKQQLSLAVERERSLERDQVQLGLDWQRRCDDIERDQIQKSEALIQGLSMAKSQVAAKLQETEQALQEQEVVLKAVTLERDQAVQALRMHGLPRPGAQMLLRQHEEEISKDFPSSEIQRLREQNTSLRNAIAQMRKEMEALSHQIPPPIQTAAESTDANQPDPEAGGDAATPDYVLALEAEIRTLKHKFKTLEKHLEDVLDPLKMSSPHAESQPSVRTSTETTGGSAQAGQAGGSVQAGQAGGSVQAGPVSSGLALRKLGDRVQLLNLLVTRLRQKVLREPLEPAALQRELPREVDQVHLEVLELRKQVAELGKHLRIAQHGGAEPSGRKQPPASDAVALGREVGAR
B4: Iodotyrosine deiodinase 1 (Homo sapiens), Q6PHW0 (parent)
chain: MYFLTPILVAILCILVVWIFKNADRSMEKKKGEPRTRAEARPWVDEDLKDSSDLHQAEEDADEWQESEENVEHIPFSHNHYPEKEMVKRSQEFYELLNKRRSVRFISNEQVPMEVIDNVIRTAGTAPSGAHTEPWTFVVVKDPDVKHKIRKIIEEEEEINYMKRMGHRWVTDLKKLRTNWIKEYLDTAPILILIFKQVHGFAANGKKKVHYYNEISVSIACGILLAALQNAGLVTVTTTPLNCGPRLRVLLGRPAHEKLLMLLPVGYPSKEATVPDLKRKPLDQIMVTV
partner: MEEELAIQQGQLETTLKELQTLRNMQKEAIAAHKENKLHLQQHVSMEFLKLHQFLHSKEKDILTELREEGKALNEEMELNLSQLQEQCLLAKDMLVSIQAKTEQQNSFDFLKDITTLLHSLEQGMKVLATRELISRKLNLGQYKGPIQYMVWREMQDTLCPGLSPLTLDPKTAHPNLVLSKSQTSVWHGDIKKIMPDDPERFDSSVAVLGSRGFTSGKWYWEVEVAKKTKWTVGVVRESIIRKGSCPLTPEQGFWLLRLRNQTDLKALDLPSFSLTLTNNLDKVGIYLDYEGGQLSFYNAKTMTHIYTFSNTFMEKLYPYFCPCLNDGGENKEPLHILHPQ
B5: U4/U6 small nuclear ribonucleoprotein Prp31 (Homo sapiens), Q8WWY3 (parent)
chain: B2 chain
partner: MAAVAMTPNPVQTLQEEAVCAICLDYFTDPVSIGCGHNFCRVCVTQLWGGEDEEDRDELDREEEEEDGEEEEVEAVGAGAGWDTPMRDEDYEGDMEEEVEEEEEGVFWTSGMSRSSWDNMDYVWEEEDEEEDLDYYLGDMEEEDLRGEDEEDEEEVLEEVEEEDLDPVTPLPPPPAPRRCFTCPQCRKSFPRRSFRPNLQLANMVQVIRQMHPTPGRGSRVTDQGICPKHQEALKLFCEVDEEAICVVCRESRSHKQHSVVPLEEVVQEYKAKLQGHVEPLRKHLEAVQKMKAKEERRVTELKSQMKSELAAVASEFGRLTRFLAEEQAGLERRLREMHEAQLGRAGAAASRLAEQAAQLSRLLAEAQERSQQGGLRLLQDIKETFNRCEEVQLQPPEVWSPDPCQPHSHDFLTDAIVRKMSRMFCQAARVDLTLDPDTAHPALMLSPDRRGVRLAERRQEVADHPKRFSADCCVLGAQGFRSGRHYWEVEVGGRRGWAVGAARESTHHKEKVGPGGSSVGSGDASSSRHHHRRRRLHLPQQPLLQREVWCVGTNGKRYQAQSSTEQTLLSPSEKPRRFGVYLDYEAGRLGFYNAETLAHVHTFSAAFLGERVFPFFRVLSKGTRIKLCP
B6: ATP synthase mitochondrial F1 complex assembly factor 2 (Homo sapiens), Q8N5M1 (parent)
chain: MWRSCLRLRDGGRRLLNRPAGGPSASMSPGPTIPSPARAYAPPTERKRFYQNVSITQGEGGFEINLDHRKLKTPQAKLFTVPSEALAIAVATEWDSQQDTIKYYTMHLTTLCNTSLDNPTQRNKDQLIRAAVKFLDTDTICYRVEEPETLVELQRNEWDPIIEWAEKRYGVEISSSTSIMGPSIPAKTREVLVSHLASYNTWALQGIEFVAAQLKSMVLTLGLIDLRLTVEQAVLLSRLEEEYQIQKWGNIEWAHDYELQELRARTAAGTLFIHLCSESTTVKHKLLKE
partner: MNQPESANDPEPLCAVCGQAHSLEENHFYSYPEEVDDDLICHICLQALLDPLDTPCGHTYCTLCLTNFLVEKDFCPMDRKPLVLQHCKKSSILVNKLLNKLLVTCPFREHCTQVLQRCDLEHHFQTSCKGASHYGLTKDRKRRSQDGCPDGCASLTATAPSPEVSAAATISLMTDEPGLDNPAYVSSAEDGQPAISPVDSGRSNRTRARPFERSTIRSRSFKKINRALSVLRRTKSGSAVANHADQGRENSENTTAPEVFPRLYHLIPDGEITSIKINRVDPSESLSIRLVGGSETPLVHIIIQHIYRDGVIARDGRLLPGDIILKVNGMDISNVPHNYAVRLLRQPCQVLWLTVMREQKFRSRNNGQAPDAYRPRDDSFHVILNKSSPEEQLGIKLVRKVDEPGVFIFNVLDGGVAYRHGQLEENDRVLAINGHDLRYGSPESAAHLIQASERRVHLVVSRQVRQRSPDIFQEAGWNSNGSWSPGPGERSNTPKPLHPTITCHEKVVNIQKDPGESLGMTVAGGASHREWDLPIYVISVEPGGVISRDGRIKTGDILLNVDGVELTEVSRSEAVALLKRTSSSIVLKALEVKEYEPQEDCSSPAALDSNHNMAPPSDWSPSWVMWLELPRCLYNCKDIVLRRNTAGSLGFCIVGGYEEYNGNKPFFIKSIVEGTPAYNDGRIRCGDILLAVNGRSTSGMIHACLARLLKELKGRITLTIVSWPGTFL

Variants of: B1
Details: with home3_human HOMER3, Q9NSC5

| effect of a mutation on the interaction | Variant |
| --- | --- |
| with no effect | R159W |
| with no effect | T508R |
| disrupting interaction strength | P77T |

Variants of: B2
Details: with zn473_human ZNF473, Q8WTR7

| effect of a mutation on the interaction | Variant |
| --- | --- |
| with no effect | L107V |

Variants of: B3
Details: with CCDC57, Q2TAC2-2

| effect of a mutation on the interaction | Variant |
| --- | --- |
| with no effect | L107V |

Variants of: B4
Details: with TRIM69, Q86WT6-2

| effect of a mutation on the interaction | Variant |
| --- | --- |
| with no effect | A220T |
| with no effect | R101W |
| with no effect | I116T |

Variants of: B5
Details: with tri41_human TRIM41, Q8WV44

| effect of a mutation on the interaction | Variant |
| --- | --- |
| with no effect | L107V |

Variants of: B6
Details: with lnx1_human LNX1, Q8TBB1

| effect of a mutation on the interaction | Variant |
| --- | --- |
| disrupting interaction strength | W94R |
